Reference: article PMC2910593 (PLoS Biology, 2010)
Where “and” joins values, the source holds several entries; their conditions need not be identical. Equal entries are not always repeated. Values belong to the molecule of their own block, whether it stands above or below them.

Experiments:
[1] = molecular target: CaMKIIα/Ca^2+/CaM complex (human) (UniProt Q9UQM7); experiment: AUC; sedimentation velocity of the CaMKII/Ca2+/CaM complexes, 4°C, 10 mM HEPES pH 7.5, 300 mM NaCl, 1 mM CaCl2, 5 mM DTT; heterodimer to heterotetramer, KD estimated from the proportions of the peaks
[2] = molecular target: CaMKI catalytic domain (human) (UniProt Q8IU85); experiment: ITC; VP-ITC, 10°C, 20 mM HEPES pH 7.5, 150 mM NaCl, 5 mM DTT, 1 mM CaCl2; Ca2+/CaM titrated into the kinase domains, or the peptide titrated into Ca2+/CaM; single binding site model
[3] = molecular target: CaMKIIα catalytic domain (human) (UniProt Q9UQM7); experiment: as above
[4] = molecular target: CaMKIIβ catalytic domain (human) (UniProt Q13554); experiment: as above
[5] = molecular target: CaMKIIγ catalytic and regulatory domain (human) (UniProt Q13555); experiment: as above
[6] = molecular target: CaMKIV catalytic domain (human) (UniProt Q16566); experiment: as above
[7] = molecular target: CaMKIIγ oligomerization domain (human); experiment: crystal structure; isolated oligomerization domains of human CaMKIIγ (2.7 Å) and CaMKIIδ (2.8 Å)
[8] = molecular target: CaMKIIδ/Ca^2+/CaM complex (human) (UniProt Q13557); experiment: AUC; sedimentation velocity of the CaMKII/Ca2+/CaM complexes, 4°C, 10 mM HEPES pH 7.5, 300 mM NaCl, 1 mM CaCl2, 5 mM DTT; heterodimer to heterotetramer, KD estimated from the proportions of the peaks
[9] = molecular target: the molecule itself; experiment: crystal structure; isolated oligomerization domains of human CaMKIIγ (2.7 Å) and CaMKIIδ (2.8 Å)

Sequence of CaMKI catalytic domain (human) (Q8IU85 1-333): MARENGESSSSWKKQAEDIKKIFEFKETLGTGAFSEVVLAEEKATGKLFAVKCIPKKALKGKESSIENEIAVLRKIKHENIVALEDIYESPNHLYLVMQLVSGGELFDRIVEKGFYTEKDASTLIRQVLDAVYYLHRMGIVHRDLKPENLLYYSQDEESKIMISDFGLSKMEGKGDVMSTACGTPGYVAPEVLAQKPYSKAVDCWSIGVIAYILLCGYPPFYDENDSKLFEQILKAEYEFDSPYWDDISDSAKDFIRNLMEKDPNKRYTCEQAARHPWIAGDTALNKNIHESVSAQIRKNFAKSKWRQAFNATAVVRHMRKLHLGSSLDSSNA
Sequence of CaMKIIγ catalytic and regulatory domain (human) (Q13555 5-317): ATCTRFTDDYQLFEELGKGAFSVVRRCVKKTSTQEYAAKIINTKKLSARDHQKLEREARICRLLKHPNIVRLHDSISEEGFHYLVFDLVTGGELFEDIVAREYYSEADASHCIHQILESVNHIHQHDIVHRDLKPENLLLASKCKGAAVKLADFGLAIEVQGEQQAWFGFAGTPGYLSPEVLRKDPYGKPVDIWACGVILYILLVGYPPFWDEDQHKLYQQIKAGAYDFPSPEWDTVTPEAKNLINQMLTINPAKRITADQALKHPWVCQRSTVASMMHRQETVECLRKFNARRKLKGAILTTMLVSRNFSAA
Sequence of CaMKIIβ catalytic domain (human) (Q13554 11-302): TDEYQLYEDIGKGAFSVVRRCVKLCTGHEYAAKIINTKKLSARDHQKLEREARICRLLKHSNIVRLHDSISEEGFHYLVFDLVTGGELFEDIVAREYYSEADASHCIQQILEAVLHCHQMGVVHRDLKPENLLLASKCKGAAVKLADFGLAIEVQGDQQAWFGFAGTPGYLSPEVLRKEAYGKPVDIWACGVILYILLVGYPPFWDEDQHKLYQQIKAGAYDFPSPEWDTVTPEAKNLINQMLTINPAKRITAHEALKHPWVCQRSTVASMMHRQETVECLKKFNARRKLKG
Sequence of CaMKIV catalytic domain (human) (Q16566 15-340): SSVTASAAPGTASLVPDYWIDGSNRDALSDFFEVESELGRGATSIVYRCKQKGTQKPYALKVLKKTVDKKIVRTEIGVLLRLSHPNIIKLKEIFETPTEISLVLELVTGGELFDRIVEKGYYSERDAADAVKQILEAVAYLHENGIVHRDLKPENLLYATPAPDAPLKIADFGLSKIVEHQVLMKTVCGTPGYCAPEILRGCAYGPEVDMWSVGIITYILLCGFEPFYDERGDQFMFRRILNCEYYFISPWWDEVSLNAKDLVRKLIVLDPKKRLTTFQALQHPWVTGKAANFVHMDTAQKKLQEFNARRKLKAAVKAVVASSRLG

Molecule: calmodulin (Ca^2+/CaM) (from UniProt P0DP23 1-149) (natural protein)
dH [2]: -5.8 kcal/mol and -5.1 kcal/mol
stoichiometry N [2]: 0.93
dH [3]: 12.1 kcal/mol
stoichiometry N [3]: 0.863
dH [4]: 8.9 kcal/mol
stoichiometry N [4]: 0.922
dH [5]: 8.6 kcal/mol
stoichiometry N [5]: 0.981
dH [6]: -10.2 kcal/mol
stoichiometry N [6]: 0.83

B1: CaMKIIδ oligomerization domain (domain or fragment, human, UniProt Q13557 334-475, looked up)
chain: SNTTIEDEDVKARKQEIIKVTEQLIEAINNGDFEAYTKICDPGLTAFEPEALGNLVEGMDFHRFYFENALSKSNKPIHTIILNPHVHLVGDDAACIAYIRLTQYMDGSGMPKTMQSEETRVWHRRDGKWQNVHFHRSGSPTV
stoichiometry N [9]: 14

Second part, the molecule after the results:

Kd [1]: 120 µM
Molecule: CaMKIIα/Ca^2+/CaM complex (from UniProt Q9UQM7 13-301; P0DP23 1-149)

stoichiometry N [7]: 12
Molecule: CaMKIIγ oligomerization domain (domain or fragment)

Kd [8]: 50 µM
Molecule: CaMKIIδ/Ca^2+/CaM complex (from UniProt Q13557 11-335; P0DP23 1-149)
